In the DeepSol protein solubility set:

Test: soluble on expression in E. coli; label from the status in PepcDB or PDB records
In the case of “MILDYIYHSGFAIEAEGVTLIIDYYKDSSETELNKGIVHDRLLQRPGKLYVLASHFHPDHFNREVLTWKEQRPDIIYIFSKDILKHHRAQKEDAIYINKGEEYEDDMLRIQAFGSTDVGISFLIHLQGKSIFHAGDLNNWHWSEESTEQEIRKAEGDFLAEIKYLQAAVPTIDLVMFPVDRRMGKDYMKGAQQFIERIKTTIFVPMHFSEDYEGGNAFRSIAEAGGCRFITITHRGESFDI”, the “soluble on expression in E. coli” value is reported as “not soluble”. In the case of “MILEKAREILEEHQLCNHCLGRLFGKLGKGTNEERGRAIRLLLSMETGKEYKEPEKCELCGGVFNNLDKFAELCIKAAEGIEFETFWVGSRFPEEIEKKEEEIWRKFRVVSGEKITKEFNRELGKVIAVRYGKTPVKERPDVVFIVEPFSEKVELQVNPIYVAGRYRKLIRGIPQTPAPGFKESIATIICRAFKKHFHGKCIFKGAGREDVDVRMLGNGRPFVVEIKRPRKRKVNLKDIEEEINQSGKVEVLNLRFITPEEAERILTTRHRKVYEAIVYVKDGITKEEVEKVVKSLKNAEIKQRTPRRVLNSRADLVRVRKVYDVKGELIDDKHFKLRLVTDGGLYIKELISGDRGRTTPSVSEILGKEAWCEILDVLEVLDDVEGDNLEHHHHHH”, the “soluble on expression in E. coli” value is reported as “not soluble”. With “MILFDYKLLAALAAVVEQGGFERAAQALGLSQSAVSQRIKLLEARVGQPVLVRETPPHPTDLGRRLLNHVQQVRLLEGDLQRWVPNLDEGGAPERLRIALNADSLATWWAAAVGDFCAERRVLLDLVVEDQEVGLKRMRAGEVAGCVCGSARPVAGARSLLLGAMRYRGLASPDFIARHFPRGVEAAALAGVPAIVFGPDDLLQHRFLKDLGVEGGFIHHLCPSSEGFVRLTAGGLGWGLVPERQVQGELARGELVELLPGQVIDVPLYWHYWRNGGELLASLTEHLLARAGDGLVRVSG” the “soluble on expression in E. coli” value was “not soluble”. In the case of “MILFGTGGIRGVMRKGEFDEETVKRASLSTALWLKEKGQKSVVIAYDTRKNSKEFAELAGRVFAGEGIEAYVFPEPTPTPVLSFAVRYMKTGGGVVITASHNPPEYNGYKVYTWDGVQAIPEYTNEITEIYKKVDLSHVKEGEIKFVPPEVKESYIKAVLEIVSNLPMKTDLDIAYSPLHGTGANYVPEVLKRLGFKVRLVEEQMKPDPNFSTVPTPNPEEDEALVLLNKKGATLGLATDPDCDRVGVVFKGRRLTGNQVGVLLTDFLLDHVKVENPLVIKTIVTTDMVRPICEEKGAFLEETPTGFKFIGHLIEEHTKKGDRNFVFGFEESCGYLAGNHARDKDGVVGSVLSAVAFSNYDPYEKLEELYQKYGYYMEKLINFKFEDVDRAVEIYRSLKNYDGIIDYSKGYGNVIPNETIAFVFEKSRIFVRPSGTEPKLKVYIHVRGDTREEAEELMKESESKIKEILKL”, the “soluble on expression in E. coli” value is reported as “soluble”. In the case of “MILINKRAEKQDYQTILAIWEKSVIVTHDFLTAEDRQFYKEQIPLFLDNVELFLWFAGEEVIGFSGTSERELDMLFLDPVATGNGYGSQILGWLIENKRINLVDVNEQNENATRFYLKHGFVVSSRSDLDGFGKPYPILQLQLK”, the “soluble on expression in E. coli” value is reported as “not soluble”. For “MILREFCAENLTDLTRLDKAIISRVELCDNLAVGGTTPSYGVIKEANQYLHEKGISVAVMIRPRGGNFVYNDLELRIMEEDILRAVELESDALVLGILTSNNHIDTEAIEQLLPATQGLPLVFHMAFDVIPKSDQKKSIDQLVALGFTRILLHGSSNGEPIIENIKHIKALVEYANNRIEIMVGGGVTAENYQYICQETGVKQAHGTRITQMAGDPLEHHHHHH”, the “soluble on expression in E. coli” value was “soluble”. For “MILSDKDIIDYVTSKRIIIKPFNKDFVGPCSYDVTLGDEFIIYDDEVYDLSKELNYKRIKIKNSILVCPLNYNLTEEKINYFKEKYNVDYVVEGGVLGTTNEYIELPNDISAQYQGRSSLGRVFLTSHQTAGWIDAGFKGKITLQIVAFDKPVILYKNQRIGQLIFSKLLSPADVGYSERKTSKYAYQKSVMPSLIHLDNHKKD”, the “soluble on expression in E. coli” value was “soluble”. For “MILVFLDNMASIKDLNLIDEINDSSNLKLINDRLKLLFWTKNPEITDEENKKKYLDFLNEYWDTLRAYGAGDLELFPDKINYLTLILAANSKNHNIYIKKLAEKYAEKIPIEDGDSKINIWDFIDVAANSRNNDLHLERMILEGDTVLLNQKNQSIYNFEKIRLKLKNYVEKVRNAEMPKEIKDLLVKKSEEAFEGINIGYNIESGIKVSTKEYSGEIPEDWHPPCMREILNDILSGGSPSHYARRSFVVYRFVSQFDPNLRPIEEGIITNRSAQDIATEEQIERFLDEIINIFKSVGDFDVEKTKYYISHNIGYKVANHITHCEYCKNWRDDGGKGLGYYCRPDSTCSRKDIIHPLDYLCHNINRHVKKSELEHHHHHH”, the “soluble on expression in E. coli” value was “not soluble”. For “MILVGDGEDLEPPDDFLRREVADSVLNLLGDYRFLTKGYFVSLHAEENGCEVFPPVKNALDAYRAPLFMNAVRKLGLETPEFSIRSEPKFERGVLLPLNPFSKNSAKVVKTSHQYAKAFKRLSMNRYPVVQVKSEKYDSFNLYLWRADKEEYNFIAEKIFKGLRIPLGKVLVDVTDGMAKPFYFMPVEKGEINLRLVFEVLYENCLLR”, the “soluble on expression in E. coli” value was “not soluble”. For “MILVTGSSGQIGTELVPYLAEKYGKKNVIASDIVQRDTGGIKFITLDVSNRDEIDRAVEKYSIDAIFHLAGILSAKGEKDPALAYKVNMNGTYNILEAAKQHRVEKVVIPSTIGVFGPETPKNKVPSITITRPRTMYGVTKIAAELLGQYYYEKFGLDVRSLRYPGIISYKAEPTAGTTDYAVEIFYYAVKREKYKCYLAPNRALPMMYMPDALKALVDLYEADRDKLVLRNGYNVTAYTFTPSELYSKIKERIPEFEIEYKEDFRDKIAATWPESLDSSEASNEWGFSIEYDLDRTIDDMIDHISEKLGIEGKHAL”, the “soluble on expression in E. coli” value was “soluble”. With “MIMNIFLIKEADLVEAAEIISASFKNYEVMRYLFNDSGNDHEAHITEFFLAFYQFGLANNWPCYGVRVNEQWVAVALGCNSSEQEIIKGSDDALTEFYKKISPQACCRIEQYDQQADAAHPSKAHFFIDSIGTHPDHQGKGYAKALILKFQELSKSDVHSTGVGLNTESDNNINFYQHLGYQVKAQQKIGSLTSWSLFRTDD” the “soluble on expression in E. coli” value was “not soluble”. With “MIMQEIFLCSISNVRSGDCKEDCAYCTQSSHHQGAIKRYKFKDEKVVLQEARALRQLGALGFCLVTSGRELDDEKCEYIAKLAKAINQEELGLHLIACCGRADLEQLEFLRDAGIHSYNHNLETSQNFFPKICSTHTWEERFITCENALRAGLGLCSGGIFGLNESWEDRIEMLRALASLSPHTTPINFFIKNPVLPIDAETLSADEALECVLLAKEFLPNARLMVAGGREVVFKDNDKKEAKLFEYGINAVVLGDYLTTKGKAPKKDIEKLLSYGLTMATSCHLEHHHHHH” the “soluble on expression in E. coli” value was “not soluble”. With “MINLPAEGHVNPTLSLVKAFTERGDHVHYITTEHFKGRIEDLGATVYTHPDLLKDISIDTETSYGLNSFFHVHVQTSLYILEITKQLCESINFDFVIYDIFGAGELVKEYLQIPGIVSSPIFLIPTEFLETLPFHPNAEIPFQPDEISEQLLYRMEHEFGVKPKNNLQFMHNKGDITLVYTSRYFQPNSDLFGENNIFIGPSISKRKTNVEFPLELLKGKKVIYISMGTLLEGLEPFFNTCIDTFSDFKGVVVMAIGDRNDRSKIKKAPDNFIIASYVLQSEILNEADVFITHGGMNSVHDAIYFNVPFVIIPHDKDQPMIAQRLTELEAAHRLLKEHVNVQSLKEAVTDVLLNEKYKHGIRKLKDSFLQCGGAKEAISVIKSLLNK” the “soluble on expression in E. coli” value was “not soluble”. For “MINMEKCLLEKYNSLLEFFKNKKVIVAYSGGVDSTLISKIASDATKTLAVTVDNGFFSENVIKKAEDCAKKYNIPQKTEKIDYLNEITSKNLENRCYNCKKRIAEELKKIKNELNYDIIVDGTIYDDIFEDRPGIKAFHEENIISPLSDLKFNKNDVFEISKYLKIDIPKKDTCMATRILSAPISKENMAKSNLAEEFIKSNFHIESYLRVRYIENIAIIELTKNESEKIFDNDSIERINTELKKIGFEKVVIDLNFK”, the “soluble on expression in E. coli” value was “not soluble”. In the case of “MIPFVWGICMPTLRNPQYRAFARRKLYRRQDGKCFYCHRDLTTKKTGELALTIEHRKAKMKGGTDDLKNLVAACWHCNHHRGEQMNATKQRKEAKALSRQRRMLARDCRSKADSQADGKAHEQLASKVEGNGANRTPSVHTARSEGLGLEHHHHHH”, the “soluble on expression in E. coli” value is reported as “soluble”. In the case of “MIPKNIHLIFLRKDEPFPELFEKCKQEIQVNHPDWNIRLYNKDDAQDILNQDLPEYIEAYNAFYHNVQKADFLRLALVYLYGGFYMDLDMLSLKPLDELRKYNLVLGEEKIVCQAEQEALNLRYRLRIANYMFGGIPKHPFLHRIMDEMAERATIILKSQQEILDITGPGLLTDTYWDNYGMYTDITLLRNTDKRCRQPYHNEISCHFGDYAAHLHAGTWRTGILEHHHHHH”, the “soluble on expression in E. coli” value is reported as “soluble”. In the case of “MIPMFKKKPLIGMVHLKPLPGSYHYNDNFDDIVDFAIKEAKKLEEAGFDAVMIENFGDAPFKKEADKITIASMAVIAKAIKEEVSLPLGINILRNDAIGAYSIAYVVKADFIRVNVLSGVAFTDQGIIEGKAYELAKLKKLLPSKIKVFADVHVKHAYHFIDFESSLLDTVERGLADAVIISGKRTGKEVDIEKLKLAKELVDVPVIVGSGTNYNNLRILWSYADGFIIGTWIKKDGKANNEIDIDRAKKIVNLANKLKMCLEHHHHHH”, the “soluble on expression in E. coli” value is reported as “soluble”. For “MIQITVVQIDNYGPWTVTPNPRRESDLQALQSRLYCDMNLQFGAHKGLAFYTRFDNIIAITNGIDLETHKRIQNSVKNRYPFTVSMAVASAETAYEAQKLATKTIQEYGSAQDDVRKEVLDVANEFVSNGYVQLAHVDINDITGKLTDLETAYDTYLSVQKTKLKLMEELKKYDSLGFFIGGDNFMCPCNGMNEKDFLCMFEDIKDSCGIELKAGIGIGKTAEDASNLADIGLEVIREGKTDSQVYTLKQ”, the “soluble on expression in E. coli” value was “not soluble”. With “MIQKQHESKLEVGQTFPVTIKRLGINGEGVGYFKRQVVFIPGALPGEEVVAETTKIQRGFAEAKVKKVRKASPHRVKAPCPVYEECGGCQLQHLDYKEQLNQKRDIVVQAFEKYMKNSMEEKIRPTLGMENPWHYRNKSQLQVGRKDEKVITGLYKQNSHQLIDIAHCMIQHKATNEATKVVRRILEKLNVSIYNEKKQKGLVRTIVTRTAVQTGEVQVTLITTKEELPNKEQFIAEVQKQMPAVKSIMQNVNWRKTSVIFGDKTFKLAGKEVIQETLGDLSFELSARAFFQLNPEQTVVLYNEAKKAAALTGNEKIVDAYCGVGTIGLWLANDAAEVRGMDVIPEAIADARKNAKRHGFTNTKYEAGKAEQWLPKWVKEGWRPDVIVVDPPRTGCDDKLLETILKVKPKQVVYVSCNPSSLARDVQALMKSYEVEYVQPVDMFPHTAHVENVVKLTLK” the “soluble on expression in E. coli” value was “not soluble”. With “MIRFEQVSKAYLGGRQALQGVDFHLRPAEMAFLTGHSGAGKSTLLKLICGIERPSAGHIWFGGHDISRLKNREVPFLRRQIGMIFQDHHLLLDRTVYDNVAMPLIIAGASSEDIRRRVSAALDKVGLLDKAKNFPIQLSGGEQQRVGIARAVVNKPAVLLADEPTGNLDDALSEGILRLFEEFNRVGVTVLMATHDTSLIARRRYPILTLSQGRMSGAHHGE” the “soluble on expression in E. coli” value was “not soluble”. With “MIRIDSVTKRYPDGTVAVDRLSLEIPDRSITVLVGPSGCGKTTTLRMINRMVEPSEGTILLDGADITKQPVNTLRRSMGYVIQNAGLFQHRTIVDNIATVPRMLGWGKERARSRARELMERVGLDASLARRYPYQLSGGQQQRVGVARALASDPPVLLMDEPFSAVDPVVRKGLQEELLRIQDELGKTIVFVTHDIDEAIRLGTMVAVMRTGGHLAQFAPPAELLSAPADAFVEDFLGTDRGIRRLSFFPSAGLELLTTPVVAIDSTAEQIAARGTPDVPYLLVTDVDGKALGWSEPKDLTAGKVVPERLLPYGRPFESGKDSLRAALDCAVLSPTGWAVAVDGTGRVVGVVSQETIGEAIRGAHAERRKADLAGLEHHHHHH” the “soluble on expression in E. coli” value was “not soluble”.
